Assay [1] has as its system GFP-14-3-3β. Nature of the assay: GFP-14-3-3β co-IP with LC-MS/MS, untreated GFP-14-3-3β versus GFP control (14-3-3 interactome). It is filed as binding, human.
Assay [2] relates to GFP-14-3-3β and its binding proteins. Nature of the assay: GFP-14-3-3β co-IP with LC-MS/MS label-free quantification, untreated versus PP1c-treated. Set-up: species or system human.
Where [3] appears, read: untreated vs GFP, LFQ intensities, replicates 1-3.
[4] abbreviates: PP1 vs untreated, LFQ intensities, replicates 1-3.

B1: ACIN1 (protein, UniProt Q9UKV3 1-1341, looked up)
Apoptotic chromatin …: MWRRKHPRTSGGTRGVLSGNRGVEYGSGRGHLGTFEGRWRKLPKMPEAVGTDPSTSRKMAELEEVTLDGKPLQALRVTDLKAALEQRGLAKSGQKSALVKRLKGALMLENLQKHSTPHAAFQPNSQIGEEMSQNSFIKQYLEKQQELLRQRLEREAREAAELEEASAESEDEMIHPEGVASLLPPDFQSSLERPELELSRHSPRKSSSISEEKGDSDDEKPRKGERRSSRVRQARAAKLSEGSQPAEEEEDQETPSRNLRVRADRNLKTEEEEEEEEEEEEDDEEEEGDDEGQKSREAPILKEFKEEGEEIPRVKPEEMMDERPKTRSQEQEVLERGGRFTRSQEEARKSHLARQQQEKEMKTTSPLEEEEREIKSSQGLKEKSKSPSPPRLTEDRKKASLVALPEQTASEEETPPPLLTKEASSPPPHPQLHSEEEIEPMEGPAPAVLIQLSPPNTDADTRELLVSQHTVQLVGGLSPLSSPSDTKAESPAEKVPEESVLPLVQKSTLADYSAQKDLEPESDRSAQPLPLKIEELALAKGITEECLKQPSLEQKEGRRASHTLLPSHRLKQSADSSSSRSSSSSSSSSRSRSRSPDSSGSRSHSPLRSKQRDVAQARTHANPRGRPKMGSRSTSESRSRSRSRSRSASSNSRKSLSPGVSRDSSTSYTETKDPSSGQEVATPPVPQLQVCEPKERTSTSSSSVQARRLSQPESAEKHVTQRLQPERGSPKKCEAEEAEPPAATQPQTSETQTSHLPESERIHHTVEEKEEVTMDTSENRPENDVPEPPMPIADQVSNDDRPEGSVEDEEKKESSLPKSFKRKISVVSATKGVPAGNSDTEGGQPGRKRRWGASTATTQKKPSISITTESLKSLIPDIKPLAGQEAVVDLHADDSRISEDETERNGDDGTHDKGLKICRTVTQVVPAEGQENGQREEEEEEKEPEAEPPVPPQVSVEVALPPPAEHEVKKVTLGDTLTRRSISQQKSGVSITIDDPVRTAQVPSPPRGKISNIVHISNLVRPFTLGQLKELLGRTGTLVEEAFWIDKIKSHCFVTYSTVEEAVATRTALHGVKWPQSNPKFLCADYAEQDELDYHRGLLVDRPSETKTEEQGIPRPLHPPPPPPVQPPQHPRAEQREQERAVREQWAEREREMERRERTRSEREWDRDKVREGPRSRSRSRDRRRKERAKSKEKKSEKKEKAQEEPPAKLLDDLFRKTKAAPCIYWLPLTDSQIVQKEAERAERAKEREKRRKEQEEEEQKEREKEAERERNRQLEREKRREHSRERDRERERERERDRGDRDRDRERDRERGRERDRRDTKRHSRSRSRSTPVRDRGGRR
In the case of B1, the “Difference (log2), untreated vs GFP” value in assay [1] (setting [3]) stood at 1.747 log2. Besides, the “Difference (log2), PP1 vs untreated” value in assay [2] (setting [4]) was -1.001 log2.

B2: EIF2A (protein, UniProt Q9BY44 1-585, looked up)
Eukaryotic translation …: MAPSTPLLTVRGSEGLYMVNGPPHFTESTVFPRESGKNCKVCIFSKDGTLFAWGNGEKVNIISVTNKGLLHSFDLLKAVCLEFSPKNTVLATWQPYTTSKDGTAGIPNLQLYDVKTGTCLKSFIQKKMQNWCPSWSEDETLCARNVNNEVHFFENNNFNTIANKLHLQKINDFVLSPGPQPYKVAVYVPGSKGAPSFVRLYQYPNFAGPHAALANKSFFKADKVTMLWNKKATAVLVIASTDVDKTGASYYGEQTLHYIATNGESAVVQLPKNGPIYDVVWNSSSTEFCAVYGFMPAKATIFNLKCDPVFDFGTGPRNAAYYSPHGHILVLAGFGNLRGQMEVWDVKNYKLISKPVASDSTYFAWCPDGEHILTATCAPRLRVNNGYKIWHYTGSILHKYDVPSNAELWQVSWQPFLDGIFPAKTITYQAVPSEVPNEEPKVATAYRPPALRNKPITNSKLHEEEPPQNMKPQSGNDKPLSKTALKNQRKHEAKKAAKQEARSDKSPDLAPTPAPQSTPRNTVSQSISGDPEIDKKIKNLKKKLKAIEQLKEQAATGKQLEKNQLEKIQKETALLQELEDLELGI
For the molecule B2, the “Difference (log2), untreated vs GFP” value in assay [1] (log2 difference, pairwise comparison untreated vs GFP, label-free quantification, 3 replicates each) is reported as -1.244. The “Difference (log2), PP1 vs untreated” value in assay [2] (log2 difference, pairwise comparison PP1 vs untreated, label-free quantification, 3 replicates each) is 1.627.

B3: SAMD4B (protein, UniProt Q5PRF9 1-694, looked up)
Protein Smaug homolog 2: MMFRDQVGILAGWFKGWNECEQTVALLSLLKRVTRTQARFLQLCLEHSLADCNDIHLLESEANSAAIVSQWQQESKEKVVSLLLSHLPLLQPGNTEAKSEYMRLLQKVLAYSIESNAFIEESRQLLSYALIHPATTLEDRNALALWLSHLEERLASGFRSRPEPSYHSRQGSDEWGGPAELGPGEAGPGWQDKPPRENGHVPFHPSSSVPPAINSIGSNANTGLPCQIHPSPLKRSMSLIPTSPQVPGEWPSPEELGARAAFTTPDHAPLSPQSSVASSGSEQTEEQGSSRNTFQEDGSGMKDVPSWLKSLRLHKYAALFSQMSYEEMMTLTEQHLESQNVTKGARHKIALSIQKLRERQSVLKSLEKDVLEGGNLRNALQELQQIIITPIKAYSVLQATVAAATTTPTAKDGAPGEPPLPGAEPPLAHPGTDKGTEAKDPPAVENYPPPPAPAPTDGSEPAPAPVADGDIPSQFTRVMGKVCTQLLVSRPDEENITSYLQLIEKCLTHEAFTETQKKRLLSWKQQVLKLLRTFPRKAALEMQNYRQQKGWAFGSNSLPIAGSVGMGVARRTQRQFPMPPRALPPGRMGLLSPSGIGGVSPRHALTSPSLGGQGRQNLWFANPGGSNSMPSQSRSSVQRTHSLPVHSSPQAILMFPPDCPVPGPDLEINPTLESLCLSMTEHALGDGTDKTSTI
In the case of B3, in assay [1] (setting [3]), the “Difference (log2), untreated vs GFP” value was found to be 4.238 log2. In addition, in assay [2] (setting [4]), the “Difference (log2), PP1 vs untreated” value is given as -1.071 log2.

B4: CORO1B (protein, UniProt Q9BR76 1-489, looked up)
Coronin-1B: MSFRKVVRQSKFRHVFGQPVKNDQCYEDIRVSRVTWDSTFCAVNPKFLAVIVEASGGGAFLVLPLSKTGRIDKAYPTVCGHTGPVLDIDWCPHNDEVIASGSEDCTVMVWQIPENGLTSPLTEPVVVLEGHTKRVGIIAWHPTARNVLLSAGCDNVVLIWNVGTAEELYRLDSLHPDLIYNVSWNHNGSLFCSACKDKSVRIIDPRRGTLVAEREKAHEGARPMRAIFLADGKVFTTGFSRMSERQLALWDPENLEEPMALQELDSSNGALLPFYDPDTSVVYVCGKGDSSIRYFEITEEPPYIHFLNTFTSKEPQRGMGSMPKRGLEVSKCEIARFYKLHERKCEPIVMTVPRKSDLFQDDLYPDTAGPEAALEAEEWVSGRDADPILISLREAYVPSKQRDLKISRRNVLSDSRPAMAPGSSHLGAPASTTTAADATPSGSLARAGEAGKLEEVMQELRALRALVKEQGDRICRLEEQLGRMENGDA
For the molecule B4, the “Difference (log2), untreated vs GFP” value in assay [1] (setting [3]) is 0.1576 log2. Also, in assay [2] (setting [4]), the “Difference (log2), PP1 vs untreated” value is given as -1.031 log2.

B5: ZC3H18 (protein, UniProt Q86VM9 1-953, looked up)
Zinc finger CCCH …: MDVAESPERDPHSPEDEEQPQGLSDDDILRDSGSDQDLDGAGVRASDLEDEESAARGPSQEEEDNHSDEEDRASEPKSQDQDSEVNELSRGPTSSPCEEEGDEGEEDRTSDLRDEASSVTRELDEHELDYDEEVPEEPAPAVQEDEAEKAGAEDDEEKGEGTPREEGKAGVQSVGEKESLEAAKEKKKEDDDGEIDDGEIDDDDLEEGEVKDPSDRKVRPRPTCRFFMKGNCTWGMNCRFIHPGVNDKGNYSLITKADPFPPNGAPPLGPHPLMPANPWGGPVVDEILPPPPPEPPTESAWERGLRHAKEVLKKATIRKEQEPDFEEKRFTVTIGEDEREFDKENEVFRDWNSRIPRDVRDTVLEPYADPYYDYEIERFWRGGQYENFRVQYTETEPYHNYRERERERERENRQRERERERERDRERERRQRERERERERERDKERQRRKEEWERERAKRDEKDRQHRDRDREKEREKEKGKPKPRSPQPPSRQAEPPKKEAATTGPQVKRADEWKDPWRRSKSPKKKLGVSVSPSRARRRRKTSASSASASNSSRSSSRSSSYSGSGSSRSRSRSSSYSSYSSRSSRHSSFSGSRSRSRSFSSSPSPSPTPSPHRPSIRTKGEPAPPPGKAGEKSVKKPAPPPAPPQATKTTAPVPEPTKPGDPREARRKERPARTPPRRRTLSGSGSGSGSSYSGSSSRSRSLSVSSVSSVSSATSSSSSAHSVDSEDMYADLASPVSSASSRSPAPAQTRKEKGKSKKEDGVKEEKRKRDSSTQPPKSAKPPAGGKSSQQPSTPQQAPPGQPQQGTFVAHKEIKLTLLNKAADKGSRKRYEPSDKDRQSPPPAKRPNTSPDRGSRDRKSGGRLGSPKPERQRGQNSKAPAAPADRKRQLSPQSKSSSKVTSVPGKASDPGAASTKSGKASTLSRREELLKQLKAVEDAIARKRAKIPGKA
Regarding B5, in assay [1] (setting [3]), the “Difference (log2), untreated vs GFP” value was 1.571 log2. In addition, the “Difference (log2), PP1 vs untreated” value in assay [2] (setting [4]) is -1.028 log2.

The values are drawn from PMC7367873, “Dissecting the sequence determinants for dephosphorylation by the catalytic subunits of phosphatases PP1 and PP2A” (Nature Communications, 2020).
